In assay [1] the target is C-terminal avi tagged 53BP1 Tudor domain, biotinylated (human) (UniProt Q12888). The assay can be described thus: AlphaScreen or HTRF; TR-FRET competition: 0.5 uM His-tagged i53, 0.5 uM C-terminal avi tagged 53BP1, 5 nM europium anti-His antibody, 0.5x streptavidin-XL665, i53 variant 5000-4.8 nM; 50 mM Tris pH 7.5, 150 mM NaCl, 0.02% Tween-20, 0.05% BSA; 2 h at room temperature; non-linear 4 parameter curve ….

Assay [2] has as its target 53BP1 Tudor domain (53BP1 residues 1484–1603) (human) (UniProt Q12888).

“i53 variant T12Y.T14E.L67R (designed binder)” had an EC50 in assay [1] of 179 nM. In other words, the sub-micromolar range.

In assay [1], i53 (WT) (designed binder) registered an EC50 of 1080 nM. The substance i53 variant L67H (designed binder) had a concentration giving a half-maximal response (EC50) in assay [1] of 465 nM.

Take “i53 variant T12V.T14H.L67H (designed binder)”: the potency in increasing HDR / decreasing NHEJ at HBB in HSPCs (dose response of purified protein in the electroporation mix, HBB-SNP AAV6), relative to parental i53 in assay [2] is 3 fold. In assay [1], this substance yielded a concentration for a half-maximal effect (EC50) of 338 nM.

In the case of i53 variant L67R (designed binder), the potency in increasing HDR / decreasing NHEJ at HBB in HSPCs (dose response of purified protein in the electroporation mix, HBB-SNP AAV6), relative to parental i53 in assay [2] turned out to be 3 fold. Also, the half-maximal effective concentration (EC50) in assay [1] amounted to 458 nM. The substance i53 variant L67H.H68Y (designed binder) returned an EC50 in assay [1] of 501 nM.

A word on the EC50: it is the midpoint of the concentration-response curve.

These data come from publication PMC10960832.
